According to patent US20110212094A1 (AbbVie / Abbott, published 2011):

T1: Recombinant Human SOST (human, UniProt Q9BQB4 24-213)
T1 construct: R&D reagent in Biacore; also called sclerostin; Human sclerostin (Abbott PR-1261069)
T1 sequence (looked up): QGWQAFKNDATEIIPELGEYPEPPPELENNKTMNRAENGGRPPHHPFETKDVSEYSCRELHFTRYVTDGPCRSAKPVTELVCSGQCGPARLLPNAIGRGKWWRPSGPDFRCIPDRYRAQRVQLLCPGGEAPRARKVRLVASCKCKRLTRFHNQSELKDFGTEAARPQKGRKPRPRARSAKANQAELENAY

B1: DVD1233 (bispecific antibody, human IgG1, kappa)
heavy: not shown
light: DIQMTQSPSSLSASVGDRVTITCRASQSISNNLNWYQQKPGKAPKLLIYYTSRFHSGVPSRFSGSGSGTDFTFTISSLQPEDIATYYCQQEHTLPYTFGQGTKLEIKRTVAAPDIVMTQSHKFMSTTVGDRVSITCKASQAVSSAVAWYQQKPGQSPKLLIYWASTRHTGVPDRFTGSGSVTDFTLTIHNLQAEDLALYYCQQHYSTPFTFGSGTKLEIKRTVAAPSVFIFPPSDEQLKSGTASVVCLLNNFYPREAKVQWKVDNALQSGNSQESVTEQDSKDSTYSLSSTLTLSKADYEKHKVYACEVTHQGLSSPVTKSFNRGEC
notes: constant regions from vectors V1/V2; also called DVD1233H; DVD1233L
B2: DVD1251 (bispecific antibody, human IgG1, kappa)
heavy: not shown
light: DIQMTQSPSSLSASVGDRVTITCRASQSISNNLNWYQQKPGKAPKLLIYYTSRFHSGVPSRFSGSGSGTDFTFTISSLQPEDIATYYCQQEHTLPYTFGQGTKLEIKRTVAAPDIQMTQSPSSLSASVGDRVTITCRASQGIRIDLGWYQQKPGKAPKRLIYAASTLQSGVPSRFSGSGSGTEFIFTISSLQPEDFASYYCLQHKSYPLTFGGGTKVEIKRTVAAPSVFIFPPSDEQLKSGTASVVCLLNNFYPREAKVQWKVDNALQSGNSQESVTEQDSKDSTYSLSSTLTLSKADYEKHKVYACEVTHQGLSSPVTKSFNRGEC
notes: constant regions from vectors V1/V2; also called DVD1251H; DVD1251L
B3: AB020 (antibody, V domains shown)
VH: QVQLQESGPGLVKPSETLSLTCTVSGFSLIGYDLNWIRQPPGKGLEWIGIIWGDGTTDYNSAVKSRVTISKDTSKNQFSLKLSSVTAADTAVYYCARGGYWYATSYYFDYWGQGTLVTVSS
VL: DIQMTQSPSSLSASVGDRVTITCRASQSISNNLNWYQQKPGKAPKLLIYYTSRFHSGVPSRFSGSGSGTDFTFTISSLQPEDIATYYCQQEHTLPYTFGQGTKLEIKR
notes: Parent anti-NGF antibody; also called NGF; AB020VH
B4: DVD1226 (bispecific antibody, human IgG1, kappa)
heavy: not shown
light: DIVMTQSHKFMSTTVGDRVSITCKASQAVSSAVAWYQQKPGQSPKLLIYWASTRHTGVPDRFTGSGSVTDFTLTIHNLQAEDLALYYCQQHYSTPFTFGSGTKLEIKRTVAAPDVQMIQSPSSLSASLGDIVTMTCQASQGTSINLNWFQQKPGKAPKLLIYGSSNLEDGVPSRFSGSRYGTDFTLTISSLEDEDLATYFCLQHSYLPYTFGGGTKLEIKRTVAAPSVFIFPPSDEQLKSGTASVVCLLNNFYPREAKVQWKVDNALQSGNSQESVTEQDSKDSTYSLSSTLTLSKADYEKHKVYACEVTHQGLSSPVTKSFNRGEC
notes: constant regions from vectors V1/V2; also called DVD1226H; DVD1226L

Legend:
[1] = biological target: T2, Recombinant Human TNF-α/TNFSF1A (human, UniProt P01375 77-233); test: Biacore SPR
T2 construct: Bought reagent for Biacore; also called huTNFα
T2 sequence (P01375 77-233 limits assumed): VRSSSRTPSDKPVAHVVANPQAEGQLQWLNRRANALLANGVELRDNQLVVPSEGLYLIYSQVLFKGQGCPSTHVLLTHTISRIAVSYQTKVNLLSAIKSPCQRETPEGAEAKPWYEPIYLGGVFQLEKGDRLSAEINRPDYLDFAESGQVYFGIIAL
Procedure: (§1) The BIACORE assay (Biacore, Inc, Piscataway, N.J.) determines the affinity of antibodies or DVD-Ig with kinetic measurements of on-rate and off-rate constants. Binding of antibodies or DVD-Ig to a target antigen (for example, a purified recombinant target antigen) is determined by surface plasmon resonance-based measurements with a Biacore® 1000 or 3000 instrument (Biacore® AB, Uppsala, Sweden) using running HBS-EP (10 mM HEPES [pH 7.4], 150 mM NaCl, 3 mM EDTA, and 0.005% surfactant P20) at 25° C. All chemicals are obtained from Biacore® AB (Uppsala, Sweden) or otherwise from a different source as described in the text. For example, approximately 5000 RU of goat anti-mouse IgG, (Fcγ), fragment specific polyclonal antibody (Pierce Biotechnology Inc, Rockford, Ill.) diluted in 10 mM sodium acetate (pH 4.5) is directly immobilized across a CM5 research grade biosensor chip using a standard amine coupling kit according to manufacturer's instructions and procedures at 25 μg/ml. Unreacted moieties on the biosensor surface are blocked with ethanolamine. Modified carboxymethyl dextran surface in flowcell 2 and 4 is used as a reaction surface. Unmodified carboxymethyl dextran without goat anti-mouse IgG in flow cell 1 and 3 is used as the reference surface. For kinetic analysis, rate equations derived from the 1:1 Langmuir binding model are fitted simultaneously to association and dissociation phases of all eight injections (using global fit analysis) with the use of Biaevaluation 4.0.1 software. Purified antibodies or DVD-Ig are diluted in HEPES-buffered saline for capture across goat anti-mouse IgG specific reaction surfaces. Antibodies or DVD-Ig to be captured as a ligand (25 μg/ml) are injected over reaction matrices at a flow rate of 5 μl/min. The association and dissociation rate constants, kₘ (M⁻¹s⁻¹) and koff (s⁻¹) are determined under a continuous flow rate of 25 μl/min. Rate constants are derived by making kinetic binding measurements at different antigen concentrations ranging from 10-200 nM. The equilibrium dissociation constant (M) of the reaction between antibodies or DVD-Igs and the target antigen is then calculated from the kinetic rate constants by the following formula: KD=koff/kₒₙ. Binding is recorded as a function of time and kinetic rate constants are calculated.

Recombinant Human β-NGF [2] = biological target: T3, Recombinant Human β-NGF (human, UniProt P01138 122-239, limits assumed); test: Biacore SPR
T3 construct: Bought reagent used in the Biacore analyses
T3 sequence (P01138 122-239 limits assumed): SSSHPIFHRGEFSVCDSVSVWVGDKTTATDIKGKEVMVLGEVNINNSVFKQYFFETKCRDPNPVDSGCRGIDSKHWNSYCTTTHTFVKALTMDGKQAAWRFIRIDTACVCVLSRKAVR
Procedure: as §1

[3] = biological target: T2, Recombinant Human TNF-α/TNFSF1A; test: cell-based or functional assay
[4] = biological target: NGF (Neuroscreen-1 bioassay); test: cell-based or functional assay
Recombinant Human β-NGF [5] = biological target: T3, Recombinant Human β-NGF; test: Biacore SPR; 25 C, HBS-EP pH 7.4; antibody captured on the chip, antigen 10-200 nM in flow
Procedure: The BIACORE assay (Biacore, Inc, Piscataway, N.J.) determines the affinity of antibodies or DVD-Ig with kinetic measurements of on-rate and off-rate constants. Binding of antibodies or DVD-Ig to a target antigen (for example, a purified recombinant target antigen) is determined by surface plasmon resonance-based measurements with a Biacore® 1000 or 3000 instrument (Biacore® AB, Uppsala, Sweden) using running HBS-EP (10 mM HEPES [pH 7.4], 150 mM NaCl, 3 mM EDTA, and 0.005% surfactant P20) at 25° C. All chemicals are obtained from Biacore® AB (Uppsala, Sweden) or otherwise from a different source as described in the text. […] The association and dissociation rate constants, kₘ (M⁻¹s⁻¹) and koff (s⁻¹) are determined under a continuous flow rate of 25 μl/min. […] The equilibrium dissociation constant (M) of the reaction between antibodies or DVD-Igs and the target antigen is then calculated from the kinetic rate constants by the following formula: KD=koff/kₒₙ. Binding is recorded as a function of time and kinetic rate constants are calculated.

Recombinant Human SOST = biological target: T1, Recombinant Human SOST; test: Biacore SPR
Procedure: as §1

| Binder | Kd [1] [nM] | koff [1] [s⁻¹] | kon [1] [M⁻¹ s⁻¹] | Kd (Recombinant Human β-NGF [2]) [nM] | koff (Recombinant Human β-NGF [2]) [s⁻¹] | kon (Recombinant Human β-NGF [2]) [M⁻¹ s⁻¹] | C-terminal VD TNFα Neutralization Assay EC50 nM (L929 cells) [3] [nM] | N-Terminal VD NGF Inhibition Assay EC50 pM (ERK1/2 phosphorylation, Neuroscreen-1 cells) [4] [pM] | NGF Inhibition Assay EC50 pM (ERK1/2 phosphorylation, Neuroscreen-1 cells) [4] [pM] | Kd (Recombinant Human β-NGF [5]) [nM] | Kd (Recombinant Human SOST) [nM] | koff (Recombinant Human SOST) [s⁻¹] | kon (Recombinant Human SOST) [M⁻¹ s⁻¹] | N-terminal VD TNFα Neutralization Assay EC50 nM (L929 cells) [3] [nM] |
| --- | --- | --- | --- | --- | --- | --- | --- | --- | --- | --- | --- | --- | --- | --- |
| B1 | 0.115 | 2.82e-05 | 244000 | 0.0217 | 1.82e-05 | 840000 | 42.4 | 62 | – | – | – | – | – | – |
| B2 | 0.0894 | 5.73e-05 | 641000 | 0.0139 | 1.17e-05 | 842000 | 8.02 | 95 | – | – | – | – | – | – |
| B3 | – | – | – | – | 4.08e-06 | 606000 | – | – | 53 | 0.00673 | – | – | – | – |
| B4 | 0.0288 | 0.000116 | 4.02e+06 | – | – | – | – | – | – | – | 2.71 | 0.000199 | 73400 | 0.0409 |
